Measurements as given in patent US20180112008A1 (Memorial Sloan Kettering, published 2018).
Each block holds one molecule with its values, some of them ahead of it. Ends that are not written are not given here. * marks the point of attachment. GlcNAc2 = N-linked chitobiose, CC(=O)N[C@@H]1[C@@H](O)[C@H](O[C@@H]2O[C@H](CO)[C@@H](O)[C@H](O)[C@H]2NC(C)=O)[C@@H](CO)O[C@H]1*

What was measured:
MUC16^c114 (human) [1] = test: FACS, SKOV3-c114
[2] = target: MUC16^c114 on SKOV3 cells with MGAT5 knock-down (human); test: FACS, SKOV3-shMGAT5-c114
MUC16^c114 (human) [3] = test: FACS, SKOV3 transfectant, goat anti-mouse IgG-PE
[4] = target: non-glycosylated 15-mer MUC16 peptide (human); test: sandwich ELISA on 'MUC16 15mer'; Blank 0.021
MUC16 18mer [5] = test: sandwich ELISA on 'MUC16 18mer'; Blank 0.032
[6] = target: GlcNAc2-15-mer glycopeptide, unconjugated (human); test: sandwich ELISA on 'MUC16 15mer + GlcNAc2'; Blank 0.019
[7] = target: (GlcNAc2)2-18-mer glycopeptide, unconjugated (human); test: sandwich ELISA on 'MUC16 18mer + GlcNAc2'; Blank 0.029
[8] = target: non-glycosylated 15-mer MUC16 peptide (human); test: ELISA 12/24/13 (sups from time of freezing), neat, column 15
MUC16 18mer [9] = test: ELISA 12/24/13 (sups from time of freezing), neat, column 18
[10] = target: GlcNAc2-15-mer glycopeptide, unconjugated (human); test: ELISA 12/24/13 (sups from time of freezing), neat, column 15S
[11] = target: (GlcNAc2)2-18-mer glycopeptide, unconjugated (human); test: ELISA 12/24/13 (sups from time of freezing), neat, column 18S
[12] = target: MUC16 unrelated peptide 18mer; test: sandwich ELISA on 'MUC16 unrelated peptide 18mer'; Blank 0.013
[13] = target: MUC16 unrelated peptide 18mer+GlcNAc2; test: sandwich ELISA on 'MUC16 unrelated 18mer + GlcNAc2'; Blank 0.014
MUC16^c114 (human) [14] = test: FACS of transfected cells; vector control phrGFP 7.9; cell line not given
MUC16^c114 (human) [15] = test: FACS of transfected cells; vector control phrGFP 3.7; cell line not given
MUC16^c114 (human) [16] = test: FACS of transfected cells; vector control phrGFP 11.4; cell line not given
MUC16 18mer [17] = target: T1, MUC16 18mer (not fully specified); test: ELISA during fusion screen, dilution 400, column 18
T1 construct: also called non-glycosylated 18-mer MUC16 peptide
T1 peptide: CTRNGTQLQNFTLDRSSV

[18] = target: T2, (GlcNAc2)2-18-mer glycopeptide, unconjugated (human); test: ELISA during fusion screen, dilution 400, column 18S
T2 construct: Used in ELISA without KLH; also called 18-mer(chitobiose)2[C-T22-V38]; 18mer-chitobiose peptide
T2 peptide: Ac-CTRN(GlcNAc2)GTQLQN(GlcNAc2)FTLDRSSV-NH2

[19] = target: T3, non-glycosylated 15-mer MUC16 peptide (human); test: ELISA 12/24/13 (sups from time of freezing), dilution 400, column 15
T3 construct: Same peptide as the GlcNAc2-15-mer without the glycan; also called unglycosylated 15-mer
T3 peptide: CGTQLQNFTLDRSSV

MUC16 18mer [20] = target: T1, MUC16 18mer; test: ELISA 12/24/13 (sups from time of freezing), dilution 400, column 18
[21] = target: T4, GlcNAc2-15-mer glycopeptide, unconjugated (human); test: ELISA 12/24/13 (sups from time of freezing), dilution 400, column 15S
T4 construct: Cys plus G25-V38 of MUC16^c114; Used in ELISA without KLH; also called 15-mer(chitobiose)[C-G25-V38]; 15mer-chitobiose peptide
T4 peptide: Ac-CGTQLQN(GlcNAc2)FTLDRSSV-NH2

[22] = target: T2, (GlcNAc2)2-18-mer glycopeptide, …; test: ELISA 12/24/13 (sups from time of freezing), dilution 400, column 18S
[23] = target: T5, biotinylated chitobiose-conjugated 18-mer glycopeptide (human, also: biotinylated, site not given here); test: BLI (Octet QK), biotinylated glycopeptide on streptavidin sensor, antibody 10 ug/mL, 1:1 model
T5 construct: Cys plus T22-V38 of MUC16^c114; The range is derived from T22-V38 and the statement that c114 is 1777-1890; also called (GlcNAc2)2-18-mer, biotinylated; 18-mer(chitobiose)2[C-T22-V38]
T5 peptide: Ac-CTRN(GlcNAc2)GTQLQN(GlcNAc2)FTLDRSSV-NH2
Procedure: Binding affinity was determined using ForeBio Octet QK. 5 μg/mL of biotinylated chitobiose-conjugated 18-mer glycopeptide was loaded onto a streptavidin biosensor. After washing off excess antigen, mouse antibodies were tested at 10 μg/mL for association and dissociation steps, respectively. Binding parameters were calculated using 1:1 binding site model, partial fit.

[24] = target: EGFR (endogenous, MUC16^c114-expressing 3T3 cells) (Mus musculus (Mouse), UniProt Q01279 25-1210); test: co-precipitation from MUC16^c114-expressing 3T3 cells with MUC16-targeting antibodies, western blot
[25] = target: HER3 (endogenous, MUC16^c114-expressing 3T3 cells) (Mus musculus (Mouse), UniProt Q61526 20-1339); test: as above
Sequence of HER3 (endogenous, MUC16^c114-expressing 3T3 cells) (Q61526 20-1339 limits assumed): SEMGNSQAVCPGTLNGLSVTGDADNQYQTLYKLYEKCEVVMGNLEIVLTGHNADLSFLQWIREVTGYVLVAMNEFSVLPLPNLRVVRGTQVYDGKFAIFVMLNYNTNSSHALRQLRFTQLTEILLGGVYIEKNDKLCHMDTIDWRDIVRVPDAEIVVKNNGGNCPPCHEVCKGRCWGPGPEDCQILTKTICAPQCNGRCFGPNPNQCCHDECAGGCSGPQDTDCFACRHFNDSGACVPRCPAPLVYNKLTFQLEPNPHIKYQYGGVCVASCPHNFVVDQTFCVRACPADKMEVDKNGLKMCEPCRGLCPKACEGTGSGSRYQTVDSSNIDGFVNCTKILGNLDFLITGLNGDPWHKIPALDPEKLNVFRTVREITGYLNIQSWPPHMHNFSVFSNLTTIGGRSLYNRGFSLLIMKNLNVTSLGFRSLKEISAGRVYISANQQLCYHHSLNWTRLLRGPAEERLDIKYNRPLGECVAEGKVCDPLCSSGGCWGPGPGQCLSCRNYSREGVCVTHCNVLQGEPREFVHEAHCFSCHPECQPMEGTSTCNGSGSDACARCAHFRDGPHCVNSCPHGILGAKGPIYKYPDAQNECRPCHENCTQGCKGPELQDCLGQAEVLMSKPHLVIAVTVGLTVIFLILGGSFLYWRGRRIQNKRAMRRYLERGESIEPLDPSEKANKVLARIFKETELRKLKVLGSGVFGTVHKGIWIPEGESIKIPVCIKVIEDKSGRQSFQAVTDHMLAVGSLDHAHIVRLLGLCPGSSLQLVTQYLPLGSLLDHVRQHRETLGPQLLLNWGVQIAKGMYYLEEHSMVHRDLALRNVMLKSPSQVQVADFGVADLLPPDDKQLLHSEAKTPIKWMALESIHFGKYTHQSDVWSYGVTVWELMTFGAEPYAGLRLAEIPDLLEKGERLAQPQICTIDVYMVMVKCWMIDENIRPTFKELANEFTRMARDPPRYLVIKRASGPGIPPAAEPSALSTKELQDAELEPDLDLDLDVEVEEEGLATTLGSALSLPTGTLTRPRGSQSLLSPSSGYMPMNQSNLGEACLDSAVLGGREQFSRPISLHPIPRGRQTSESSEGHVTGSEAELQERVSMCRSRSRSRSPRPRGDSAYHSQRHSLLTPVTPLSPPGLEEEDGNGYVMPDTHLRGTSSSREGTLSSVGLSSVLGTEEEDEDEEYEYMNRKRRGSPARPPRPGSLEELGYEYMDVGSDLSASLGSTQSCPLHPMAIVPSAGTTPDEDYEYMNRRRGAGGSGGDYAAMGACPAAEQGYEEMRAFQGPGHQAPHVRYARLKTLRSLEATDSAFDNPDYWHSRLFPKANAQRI

MUC16^c114-N2 = target: T6, MUC16^c114-N2 (human, chain 1 pos 1 and pos 30: N-glycosylated Asn (cell-made glycans), written N); test: FACS, SKOV3-N24 mutc114
T6 construct: MUC16^c114 with Asn24 (Asn1800) changed to Ala, on SKOV3 cells; also called N24 mut c114; SKOV3-N24 mutc114; not shown: hrGFP of the phrGFP II-C vector, fused at the cytoplasmic carboxy-terminus
T6 chain: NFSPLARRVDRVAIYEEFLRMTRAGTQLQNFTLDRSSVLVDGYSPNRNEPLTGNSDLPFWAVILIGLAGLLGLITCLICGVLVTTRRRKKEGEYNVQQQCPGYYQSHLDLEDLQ

MUC16^c114-N1 = target: T7, MUC16^c114-N1 (human, chain 1 pos 24 and pos 30: N-glycosylated Asn (cell-made glycans), written N); test: FACS, SKOV3 transfectant, goat anti-mouse IgG-PE
T7 construct: MUC16^c114 with Asn1 (Asn1777) changed to Ala, on SKOV3 cells; also called N1 mut c114; SKOV3 MUC16^c114-N1; not shown: hrGFP of the phrGFP II-C vector, fused at the cytoplasmic carboxy-terminus
T7 chain: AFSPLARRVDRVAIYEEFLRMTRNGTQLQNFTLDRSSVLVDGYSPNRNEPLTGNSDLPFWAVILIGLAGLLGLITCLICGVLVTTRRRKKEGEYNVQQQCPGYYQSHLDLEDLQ

MUC16^c114-N3 = target: T8, MUC16^c114-N3 (human, chain 1 pos 1 and pos 24: N-glycosylated Asn (cell-made glycans), written N); test: FACS, SKOV3 transfectant, goat anti-mouse IgG-PE
T8 construct: MUC16^c114 with Asn30 (Asn1806) changed to Ala, on SKOV3 cells; also called N30 mut c114; SKOV3-N30 mutc114; not shown: hrGFP of the phrGFP II-C vector, fused at the cytoplasmic carboxy-terminus
T8 chain: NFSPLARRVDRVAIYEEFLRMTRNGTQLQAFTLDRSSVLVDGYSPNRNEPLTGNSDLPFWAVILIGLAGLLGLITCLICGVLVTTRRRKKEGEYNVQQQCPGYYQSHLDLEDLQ

MUC16^c114-N123 = target: T9, MUC16^c114-N123 (human, All three N-glycosylation sites (pos 1, 24, 30) are mutated to Ala; none is left in the ectodomain.); test: FACS, SKOV3 transfectant, goat anti-mouse IgG-PE
T9 construct: MUC16^c114 with Asn1, Asn24 and Asn30 changed to Ala, on SKOV3 or 3T3 cells; also called N1-N24-N30 mut c114; SKOV3-N1-N24-N30mutc114; not shown: hrGFP of the phrGFP II-C vector, fused at the cytoplasmic carboxy-terminus
T9 chain: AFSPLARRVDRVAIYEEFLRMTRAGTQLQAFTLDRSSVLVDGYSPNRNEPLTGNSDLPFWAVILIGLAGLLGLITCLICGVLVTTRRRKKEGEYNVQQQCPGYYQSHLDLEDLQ

[26] = target: T10, MUC16 nonglycosylated peptide 2 (human); test: sandwich ELISA on 'MUC16 Nonglycosylated Peptide2'; Blank 0.029
T10 construct: Peptide used to elicit the 4H11 antibody; also called nonglycosylated MUC16 peptide 2
T10 peptide: CTLDRSSVLVDGYSPNRNE

MUC16^c80 = target: T11, MUC16^c80; test: FACS of transfected cells; vector control phrGFP 11.4; cell line not given
T11 construct: also called External Deletion
T11 single chain: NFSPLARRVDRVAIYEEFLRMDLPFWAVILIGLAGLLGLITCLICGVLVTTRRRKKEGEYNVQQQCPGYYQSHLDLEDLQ

MUC16^c86 = target: T12, MUC16^c86; test: as above
T12 construct: also called Internal Deletion
T12 single chain: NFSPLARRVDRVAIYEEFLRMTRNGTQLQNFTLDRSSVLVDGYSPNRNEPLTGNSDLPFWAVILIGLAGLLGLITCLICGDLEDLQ

MUC16^c344 = target: T13, MUC16^c344 (human, N- and O-glycosylation sites ; chain 1 pos 231, 254 and 260 (N1, N24, N30 of c114): N-glycosylated Asn, written N; further N- and O-glycosylation sites in the tandem-repeat part); test: as above
T13 construct: also called MUC16^c344-GFP; SKOV3-c344; not shown: hrGFP of the phrGFP II-C vector, fused at the cytoplasmic carboxy-terminus
T13 chain: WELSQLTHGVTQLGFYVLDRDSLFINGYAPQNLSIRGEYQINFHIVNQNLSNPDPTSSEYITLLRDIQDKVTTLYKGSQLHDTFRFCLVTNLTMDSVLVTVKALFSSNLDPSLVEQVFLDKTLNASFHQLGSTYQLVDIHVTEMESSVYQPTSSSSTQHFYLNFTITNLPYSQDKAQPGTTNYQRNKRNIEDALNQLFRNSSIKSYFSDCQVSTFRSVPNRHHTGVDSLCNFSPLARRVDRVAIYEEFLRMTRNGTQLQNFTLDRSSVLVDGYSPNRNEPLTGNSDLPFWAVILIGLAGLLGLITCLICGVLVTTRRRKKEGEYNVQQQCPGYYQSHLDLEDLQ

Molecule: 4H11 (antibody)
geometric mean phycoerythrin (PE) fluorescence (MUC16^c114 (human) [1]): 1120
geometric mean phycoerythrin (PE) fluorescence [2]: 2380
Mean % PE (MUC16^c114 (human) [3]): 85.7%
ELISA signal [4]: 0.049
ELISA signal (MUC16 18mer [5]): 0.076
ELISA signal [6]: 0.06
ELISA signal [7]: 0.063
ELISA signal [8]: 0.02
ELISA signal (MUC16 18mer [9]): 0.02
ELISA signal [10]: 0.02
ELISA signal [11]: 0.02
ELISA signal [12]: 0.045
ELISA signal [13]: 0.038
% 4H11-PE Positives (MUC16^c114 (human) [14]): 28.4%
% 4H11-PE Positives (MUC16^c114 (human) [15]): 19.3%
% 4H11-PE Positives (MUC16^c114 (human) [16]): 51.7%

B3: 4H11 (antibody, V domains shown)
VH: EVKLQESGGGFVKPGGSLKVSCAASGFTFSSYAMSWVRLSPEMRLEWVATISSAGGYIFYSDSVQGRFTISRDNAKNTLHLQMGSLRSGDTAMYYCARQGFGNYGDYYAMDYWGQGTTVTVSS
VL: DIELTQSPSSLAVSAGEKVTMSCKSSQSLLNSRTRKNQLAWYQQKPGQSPELLIYWASTRQSGVPDRFTGSGSGTDFTLTISSVQAEDLAVYYCQQSYNLLTFGPGTKLEVK
geometric mean phycoerythrin (PE) fluorescence (MUC16^c114-N2): 2650
Mean % PE (MUC16^c114-N1): 91.5%
Mean % PE (MUC16^c114-N3): 15.6%
Mean % PE (MUC16^c114-N123): 32.3%
ELISA signal [26]: 2.14
% 4H11-PE Positives (MUC16^c80): 16.7%
% 4H11-PE Positives (MUC16^c86): 27.4%
% 4H11-PE Positives (MUC16^c344): 34.4%

Results, then the molecule that gave them:

ELISA signal (MUC16 18mer [17]): 0.24
ELISA signal [18]: 0.36
ELISA signal [19]: 0.62
ELISA signal (MUC16 18mer [20]): 0.63
ELISA signal [21]: 0.23
ELISA signal [22]: 0.68
Kd [23]: 25.7 nM
koff [23]: 0.00172 s⁻¹
B1: 16C5.C1 (antibody, V domains shown)
VH: QVTLKESGPGILQPSQTLSLTCSFSGFSLNTLGMGVGWIRQPSGKGLEWLAHIWWDDDKYYYPALKSRLTISRDTSKNQVFLKIANVDTADTATYYCARIGTAQATDALDYWGQGTSVTVSS
VL: ELDMTQTPPSLSASVGETVRIRCLASEDIYSGISWYQQKPGKPPTLLIYGASNLESGVPPRFSGSGSGTDYTLTIGGVQAEDAATYYCLGGYSYSSTLTFGAGTNVEIK
notes: Mouse monoclonal from a hybridoma

binding result [24]: no binding
binding result [25]: no binding
B2: MUC16^c114 (other)
chain: NFSPLARRVDRVAIYEEFLRMTRNGTQLQNFTLDRSSVLVDGYSPNRNEPLTGNSDLPFWAVILIGLAGLLGLITCLICGVLVTTRRRKKEGEYNVQQQCPGYYQSHLDLEDLQ
modifications: capable of N-glycosylation at Asn1, Asn24 and Asn30 ; chain 1 pos 1, 24, 30: Asn capable of N-glycosylation on the transfected cells, written N
notes: The forward primer adds Met-Val before Asn1; also called MUC16^c114-GFP; SKOV3 MUC16^c114; not shown: hrGFP of the phrGFP II-C vector fused at the cytoplasmic carboxy-terminus, with its short cloning linker
